Results on one molecule are retold here after article PMC4908242, “Functional Characterization of a Small-Molecule Inhibitor of the DKK1-LRP6 Interaction” (ISRN Molecular Biology, 2012).

Assay [1] has as its target T1, Full-length human LRP6-Fc tagged (R&D Systems) (human, UniProt O75581 20-1613). As to the kind of experiment: SPR; Biacore T100. LRP6-Fc (0.5 μg/mL) captured on Protein A that was amine-coupled to a CM3 chip; DKK1 3-54 nM injected; HBS-EP+ pH 7.4, 25°C; apparent KD. The conditions noted are these: both partners purified. Background: SPR reads the build-up and loss of mass on a sensor chip optically.

Assay [2] deals with T1, Full-length human LRP6-Fc tagged (R&D …). The experiment in a line: SPR; Biacore T100. LRP6-Fc immobilised by amine coupling on a CM3 chip (3000 RU); DKK1 3-54 nM injected for 180 sec; HBS-EP+ pH 7.4, 25°C; apparent KD calculated as kd/ka. The conditions noted are these: both partners purified.

T1 sequence (O75581 20-1613): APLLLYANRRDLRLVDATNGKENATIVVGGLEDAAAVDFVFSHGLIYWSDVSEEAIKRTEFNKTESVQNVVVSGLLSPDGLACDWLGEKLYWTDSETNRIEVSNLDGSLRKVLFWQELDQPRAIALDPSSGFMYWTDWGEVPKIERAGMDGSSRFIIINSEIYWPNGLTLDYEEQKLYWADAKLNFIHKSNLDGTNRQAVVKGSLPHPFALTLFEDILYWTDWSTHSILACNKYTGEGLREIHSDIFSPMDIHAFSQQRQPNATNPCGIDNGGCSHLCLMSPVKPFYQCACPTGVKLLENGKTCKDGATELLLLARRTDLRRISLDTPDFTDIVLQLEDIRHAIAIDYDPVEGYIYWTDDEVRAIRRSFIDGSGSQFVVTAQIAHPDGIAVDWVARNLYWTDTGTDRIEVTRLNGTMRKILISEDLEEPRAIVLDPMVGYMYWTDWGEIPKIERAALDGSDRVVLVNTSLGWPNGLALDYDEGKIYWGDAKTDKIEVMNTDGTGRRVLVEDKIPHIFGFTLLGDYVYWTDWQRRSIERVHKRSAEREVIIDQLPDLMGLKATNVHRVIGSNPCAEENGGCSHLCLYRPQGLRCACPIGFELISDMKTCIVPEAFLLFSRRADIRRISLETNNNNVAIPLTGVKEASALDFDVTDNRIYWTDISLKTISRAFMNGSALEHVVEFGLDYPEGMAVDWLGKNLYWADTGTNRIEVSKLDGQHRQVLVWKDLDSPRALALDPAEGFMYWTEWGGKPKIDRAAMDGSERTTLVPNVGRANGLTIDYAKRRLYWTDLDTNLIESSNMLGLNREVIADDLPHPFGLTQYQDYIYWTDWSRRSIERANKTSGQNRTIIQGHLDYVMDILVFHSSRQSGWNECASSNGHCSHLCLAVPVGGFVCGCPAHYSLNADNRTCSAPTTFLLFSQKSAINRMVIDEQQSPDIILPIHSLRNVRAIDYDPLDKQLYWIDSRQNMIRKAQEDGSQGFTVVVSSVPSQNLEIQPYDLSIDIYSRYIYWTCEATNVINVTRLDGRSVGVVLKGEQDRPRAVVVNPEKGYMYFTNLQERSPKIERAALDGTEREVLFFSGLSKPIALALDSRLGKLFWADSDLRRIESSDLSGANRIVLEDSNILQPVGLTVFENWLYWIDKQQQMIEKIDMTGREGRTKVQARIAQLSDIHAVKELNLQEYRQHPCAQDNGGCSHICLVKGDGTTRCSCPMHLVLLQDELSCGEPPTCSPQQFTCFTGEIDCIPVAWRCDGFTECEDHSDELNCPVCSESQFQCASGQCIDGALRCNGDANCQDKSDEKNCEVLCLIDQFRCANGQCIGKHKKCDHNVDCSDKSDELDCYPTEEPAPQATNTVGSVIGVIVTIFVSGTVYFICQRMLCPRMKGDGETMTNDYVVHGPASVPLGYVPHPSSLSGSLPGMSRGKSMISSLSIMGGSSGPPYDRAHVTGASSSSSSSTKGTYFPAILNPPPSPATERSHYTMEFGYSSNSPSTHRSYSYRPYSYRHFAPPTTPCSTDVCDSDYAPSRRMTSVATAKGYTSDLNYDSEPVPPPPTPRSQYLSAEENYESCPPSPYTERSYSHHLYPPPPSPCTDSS

B1: Commercial purified recombinant human DKK1 (ligand, UniProt O94907 32-266, looked up)
chain: TLNSVLNSNAIKNLPPPLGGAAGHPGSAVSAAPGILYPGGNKYQTIDNYQPYPCAEDEECGTDEYCASPTRGGDAGVQICLACRKRRKRCMRHAMCCPGNYCKNGICVSSDQNHFRGEIEETITESFGNDHSTLDGYSRRTTLSSKMYHTKGQEGSVCLRSSDCASGLCCARHFWSKICKPVLKEGQVCTKHRRKGSHGLEIFQRCYCGEGLSCRIQKDHHQASNSSRLHTCQRH
notes: Dickkopf 1 (DKK1), human, commercial recombinant protein; Neither catalogue number nor construct limits are printed; also called Dickkopf 1; commercial recombinant DKK1; source: bought: R&D Systems, purified recombinant
As a reminder, the koff is the first-order rate constant of dissociation. The term kon denotes the rate constant with which the complex forms. Consider B1, for which the Kd in assay [1] came out at 0.84 nM. For the same molecule, in assay [2], the Kd was 0.349 nM, the koff is 0.00183 s⁻¹ and the kon is 5.26e+06 M⁻¹ s⁻¹.
